Our source for the screen value values is paper PMC10200994 (2023).

The labels stand for the following.
B1: STAT5B (unphosphorylated, wild-type), fluorophore fusion [not stated] / STAT5A (unphosphorylated, wild-type), fluorophore fusion [not stated] (parent complex)
chain 1: MAVWIQAQQLQGEALHQMQALYGQHFPIEVRHYLSQWIESQAWDSVDLDNPQENIKATQLLEGLVQELQKKAEHQVGEDGFLLKIKLGHYATQLQNTYDRCPMELVRCIRHILYNEQRLVREANNGSSPAGSLADAMSQKHLQINQTFEELRLVTQDTENELKKLQQTQEYFIIQYQESLRIQAQFGPLAQLSPQERLSRETALQQKQVSLEAWLQREAQTLQQYRVELAEKHQKTLQLLRKQQTIILDDELIQWKRRQQLAGNGGPPEGSLDVLQSWCEKLAEIIWQNRQQIRRAEHLCQQLPIPGPVEEMLAEVNATITDIISALVTSTFIIEKQPPQVLKTQTKFAATVRLLVGGKLNVHMNPPQVKATIISEQQAKSLLKNENTRNDYSGEILNNCCVMEYHQATGTLSAHFRNMSLKRIKRSDRRGAESVTEEKFTILFESQFSVGGNELVFQVKTLSLPVVVIVHGSQDNNATATVLWDNAFAEPGRVPFAVPDKVLWPQLCEALNMKFKAEVQSNRGLTKENLVFLAQKLFNNSSSHLEDYSGLSVSWSQFNRENLPGRNYTFWQWFDGVMEVLKKHLKPHWNDGAILGFVNKQQAHDLLINKPDGTFLLRFSDSEIGGITIAWKFDSQERMFWNLMPFTTRDFSIRSLADRLGDLNYLIYVFPDRPKDEVYSKYYTPVPCESATAKAVDGYVKPQIKQVVPEFVNASADAGGGSATYMDQAPSPAVCPQAHYNMYPQNPDSVLDTDGDFDLEDTMDVARRVEELLGRPMDSQWIPHAQS
chain 2: MAGWIQAQQLQGDALRQMQVLYGQHFPIEVRHYLAQWIESQPWDAIDLDNPQDRAQATQLLEGLVQELQKKAEHQVGEDGFLLKIKLGHYATQLQKTYDRCPLELVRCIRHILYNEQRLVREANNCSSPAGILVDAMSQKHLQINQTFEELRLVTQDTENELKKLQQTQEYFIIQYQESLRIQAQFAQLAQLSPQERLSRETALQQKQVSLEAWLQREAQTLQQYRVELAEKHQKTLQLLRKQQTIILDDELIQWKRRQQLAGNGGPPEGSLDVLQSWCEKLAEIIWQNRQQIRRAEHLCQQLPIPGPVEEMLAEVNATITDIISALVTSTFIIEKQPPQVLKTQTKFAATVRLLVGGKLNVHMNPPQVKATIISEQQAKSLLKNENTRNECSGEILNNCCVMEYHQATGTLSAHFRNMSLKRIKRADRRGAESVTEEKFTVLFESQFSVGSNELVFQVKTLSLPVVVIVHGSQDHNATATVLWDNAFAEPGRVPFAVPDKVLWPQLCEALNMKFKAEVQSNRGLTKENLVFLAQKLFNNSSSHLEDYSGLSVSWSQFNRENLPGWNYTFWQWFDGVMEVLKKHHKPHWNDGAILGFVNKQQAHDLLINKPDGTFLLRFSDSEIGGITIAWKFDSPERNLWNLKPFTTRDFSIRSLADRLGDLSYLIYVFPDRPKDEVFSKYYTPVLAKAVDGYVKPQIKQVVPEFVNASADAGGSSATYMDQAPSPAVCPQAPYNMYPQNPDHVLDQDGEFDLDETMDVARHVEELLRRPMDSLDSRLSPPAGLFTSARGSLS

The variants in the assay derive from B1. Description: co-localization assay (quantitative fluorescence microscopy in HeLa cells); bait S5A-NES, test S5B-L82A; 27 cells (parent 17 cells); parent: 0.97.
Regarding chain 1 L82A, the screen value worked out at 0.65.
